Experimental findings from publication PMC5778602 (Nucleic Acids Research, 2017) are described below.

Sequences and labels used below:
B2: CstF-77ΔN (domain or fragment, human, UniProt Q12996 241-717, looked up)
chain: NTPQEAQQVDMWKKYIQWEKSNPLRTEDQTLITKRVMFAYEQCLLVLGHHPDIWYEAAQYLEQSSKLLAEKGDMNNAKLFSDEAANIYERAISTLLKKNMLLYFAYADYEESRMKYEKVHSIYNRLLAIEDIDPTLVYIQYMKFARRAEGIKSGRMIFKKAREDTRTRHHVYVTAALMEYYCSKDKSVAFKIFELGLKKYGDIPEYVLAYIDYLSHLNEDNNTRVLFERVLTSGSLPPEKSGEIWARFLAFESNIGDLASILKVEKRRFTAFKEEYEGKETALLVDRYKFMDLYPCSASELKALGYKDVSRAKLAAIIPDPVVAPSIVPVLKDEVDRKPEYPKPDTQQMIPFQPRHLAPPGLHPVPGGVFPVPPAAVVLMKLLPPPICFQGPFVQVDELMEIFRRCKIPNTVEEAVRIITGGAPELAVEGNGPVESNAVLTKAVKRPNEDSDEDEEKGAVVPPVHDIYRARQQKRIR
B4: full length GST-CstF-50 fusion protein (natural protein, human, UniProt Q05048 1-431, looked up)
chain: MYRTKVGLKDRQQLYKLIISQLLYDGYISIANGLINEIKPQSVCAPSEQLLHLIKLGMENDDTAVQYAIGRSDTVAPGTGIDLEFDADVQTMSPEASEYETCYVTSHKGPCRVATYSRDGQLIATGSADASIKILDTERMLAKSAMPIEVMMNETAQQNMENHPVIRTLYDHVDEVTCLAFHPTEQILASGSRDYTLKLFDYSKPSAKRAFKYIQEAEMLRSISFHPSGDFILVGTQHPTLRLYDINTFQCFVSCNPQDQHTDAICSVNYNSSANMYVTGSKDGCIKLWDGVSNRCITTFEKAHDGAEVCSAIFSKNSKYILSSGKDSVAKLWEISTGRTLVRYTGAGLSGRQVHRTQAVFNHTEDYVLLPDERTISLCCWDSRTAERRNLLSLGHNNIVRCIVHSPTNPGFMTCSDDFRARFWYRRSTTD

The target in data set [1] is B4. The experiment in a line: pull-down.
The data set “SEC-MALS” deals with the molecule itself. The experiment in a line: SEC-MALS. Background: In gel filtration, larger molecules generally elute earlier.
The target of another data set is T1, WD40 domain of CstF-50 (human, UniProt Q05048 80-431).
T1 sequence: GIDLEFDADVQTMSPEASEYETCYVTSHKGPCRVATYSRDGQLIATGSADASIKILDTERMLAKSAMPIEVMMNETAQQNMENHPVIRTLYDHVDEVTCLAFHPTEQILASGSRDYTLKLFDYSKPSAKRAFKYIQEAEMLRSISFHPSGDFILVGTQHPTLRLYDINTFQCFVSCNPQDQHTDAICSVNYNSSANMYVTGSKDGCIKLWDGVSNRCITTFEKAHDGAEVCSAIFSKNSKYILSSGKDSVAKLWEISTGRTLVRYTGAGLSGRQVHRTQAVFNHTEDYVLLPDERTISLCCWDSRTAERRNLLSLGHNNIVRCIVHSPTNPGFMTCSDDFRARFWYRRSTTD
The experiment in a line: ITC.

Data set [2] has as its target B2. Nature of the data set: pull-down.
Data set [3] deals with B2. The experiment in a line: SEC.

B1: CstF-77 (residues 241–600) (domain or fragment, human, UniProt Q12996 241-600, looked up)
chain: NTPQEAQQVDMWKKYIQWEKSNPLRTEDQTLITKRVMFAYEQCLLVLGHHPDIWYEAAQYLEQSSKLLAEKGDMNNAKLFSDEAANIYERAISTLLKKNMLLYFAYADYEESRMKYEKVHSIYNRLLAIEDIDPTLVYIQYMKFARRAEGIKSGRMIFKKAREDTRTRHHVYVTAALMEYYCSKDKSVAFKIFELGLKKYGDIPEYVLAYIDYLSHLNEDNNTRVLFERVLTSGSLPPEKSGEIWARFLAFESNIGDLASILKVEKRRFTAFKEEYEGKETALLVDRYKFMDLYPCSASELKALGYKDVSRAKLAAIIPDPVVAPSIVPVLKDEVDRKPEYPKPDTQQMIPFQPRHLAPP
As to B1, in data set [1], the binding result is given as “binds”.

As to B2, in “SEC-MALS”, the stoichiometry N (in general, the number of molecules, sites or subunits per partner or assembly) was 2.

B3: CstF-77 (residues 241–610) (domain or fragment, human, UniProt Q12996 241-610, looked up)
chain: NTPQEAQQVDMWKKYIQWEKSNPLRTEDQTLITKRVMFAYEQCLLVLGHHPDIWYEAAQYLEQSSKLLAEKGDMNNAKLFSDEAANIYERAISTLLKKNMLLYFAYADYEESRMKYEKVHSIYNRLLAIEDIDPTLVYIQYMKFARRAEGIKSGRMIFKKAREDTRTRHHVYVTAALMEYYCSKDKSVAFKIFELGLKKYGDIPEYVLAYIDYLSHLNEDNNTRVLFERVLTSGSLPPEKSGEIWARFLAFESNIGDLASILKVEKRRFTAFKEEYEGKETALLVDRYKFMDLYPCSASELKALGYKDVSRAKLAAIIPDPVVAPSIVPVLKDEVDRKPEYPKPDTQQMIPFQPRHLAPPGLHPVPGGVF
In the case of B3, the binding result in data set [1] is reported as “binds”.

In the case of YPKPDTQQMIPFQPRHLAPP (peptide, UniProt Q12996 581-600, looked up) [CstF-77 peptide (residues 581–600)], in the data set with WD40 domain of CstF-50, the dissociation constant Kd (as a rule, the constant that tells how readily two partners part at equilibrium) is approximately 200 nM and the “stoichiometry N” value was 1.

As for B4, the binding result with CstF-77ΔN [2] is “binds”.

B5: CstF-50 (full length, affinity tag removed) (natural protein, human, UniProt Q05048 1-431, looked up)
chain: MYRTKVGLKDRQQLYKLIISQLLYDGYISIANGLINEIKPQSVCAPSEQLLHLIKLGMENDDTAVQYAIGRSDTVAPGTGIDLEFDADVQTMSPEASEYETCYVTSHKGPCRVATYSRDGQLIATGSADASIKILDTERMLAKSAMPIEVMMNETAQQNMENHPVIRTLYDHVDEVTCLAFHPTEQILASGSRDYTLKLFDYSKPSAKRAFKYIQEAEMLRSISFHPSGDFILVGTQHPTLRLYDINTFQCFVSCNPQDQHTDAICSVNYNSSANMYVTGSKDGCIKLWDGVSNRCITTFEKAHDGAEVCSAIFSKNSKYILSSGKDSVAKLWEISTGRTLVRYTGAGLSGRQVHRTQAVFNHTEDYVLLPDERTISLCCWDSRTAERRNLLSLGHNNIVRCIVHSPTNPGFMTCSDDFRARFWYRRSTTD
For B5, the binding result with CstF-77ΔN [3] is “binds”.
